T1: CD66c (Cluster of Differentiation 66c) on cells (UniProt P40199 35-320, limits assumed)
T1 construct: whole, on cells; also called CEACAM6; CEACAM 6
T1 sequence (looked up): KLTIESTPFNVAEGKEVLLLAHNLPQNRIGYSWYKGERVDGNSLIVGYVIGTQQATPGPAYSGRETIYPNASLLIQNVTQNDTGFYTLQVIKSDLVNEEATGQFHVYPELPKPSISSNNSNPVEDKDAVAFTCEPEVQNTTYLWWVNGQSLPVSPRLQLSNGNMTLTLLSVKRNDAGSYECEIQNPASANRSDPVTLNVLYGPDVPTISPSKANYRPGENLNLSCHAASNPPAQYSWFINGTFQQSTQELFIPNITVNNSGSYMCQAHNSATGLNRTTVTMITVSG

T2: Antigen CD66c (CEACAM6; Sino Biological, Inc.) (UniProt P40199 35-320)
T2 construct: Bought antigen, coated on the ELISA plate; construct not described; also called CECACAM6 (CD66c) antigen; CD66c antigen
T2 sequence (looked up): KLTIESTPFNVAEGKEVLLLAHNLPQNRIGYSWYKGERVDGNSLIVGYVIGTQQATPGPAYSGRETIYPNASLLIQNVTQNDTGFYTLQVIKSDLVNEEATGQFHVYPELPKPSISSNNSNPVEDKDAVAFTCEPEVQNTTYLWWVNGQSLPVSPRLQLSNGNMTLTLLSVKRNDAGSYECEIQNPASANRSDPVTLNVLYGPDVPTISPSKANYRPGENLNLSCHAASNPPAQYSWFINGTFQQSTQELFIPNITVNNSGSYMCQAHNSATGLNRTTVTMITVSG


Legend:
[1] = target: T1, CD66c (Cluster of Differentiation 66c) …; assay: flow cytometry on CD66c-positive A549 cells, FITC anti-human IgG
Protocol: Each expressed 96 recombinant humanized antibody was poured and reacted in a test tube containing the same amount […] of CD66c-positive A549 non-small-cell lung cancer cell line at 4° C. for 30 minutes, washed with PBS, and treated with FITC-conjugated goat anti-Huma IgG (DiNona Inc, Korea) was added and incubated at 4° C. for 15 minutes. After washing with PBS, the cells were analyzed with a flow cytometer (Stratedigm, S1000EXi) and the results are shown below.
Among the 96 recombinant humanized antibody candidates, eight were firstly selected based on the degree of expression, the presence of aggregation, and the degree of cell binding (Table 9 and Table 10, FIGS. 3A to 3E).

[2] = target: T2, Antigen CD66c (CEACAM6; Sino …); assay: ELISA, CEACAM6 coated 100 ng/well, antibody at 370.37 ng/ml
Protocol: (§1) Antigen CD66c (CEACAM6; Sino Biological, Inc.) and CEACAM1 antigen (Sino Biological, Inc.) were coated on a 96-well plate at a rate of 100 ng per well and then blocked. The primary antibody was diluted 3-fold from 10 ug/ml and bound at 37° C. for 1 hour. […] goat anti-Human Ig-HRP conjugate (Jackson ImmunoResearch) as a secondary antibody was diluted 1:10,000 and incubated at 37° C. for 30 minutes. The washing was carried out at three times between each step, and the TMB reaction was performed, stopped with 1N H₂SO₄ solution at the same amount of TMB solution (100 ul) and then OD value was measured at 450 nm.
(§2) As a result of the experiment, the binding affinities to CD66c antigen of the five kinds of recombinant humanized antibodies selected from among 96 kinds of recombinant humanized antibodies are shown in FIG. 4a, Table 12, FIG. 4b and Table 13. FIG. 4a and Table 12 show the binding capacity of the antibodies to CECACAM6 CD66c) antigen, and FIG. 4b and Table 13 are the results for the CEACAM1 (CD66a) antigen.

[3] = target: T2, Antigen CD66c (CEACAM6; Sino …); assay: ELISA, CEACAM6 coated 100 ng/well, antibody at 1111.11 ng/ml
Protocol: as §1, §2

[4] = target: T2, Antigen CD66c (CEACAM6; Sino …); assay: ELISA, CEACAM6 coated 100 ng/well, antibody at 123.46 ng/ml
Protocol: as §1, §2

[5] = target: T2, Antigen CD66c (CEACAM6; Sino …); assay: ELISA, CEACAM6 coated 100 ng/well, antibody at 0.17 ng/ml
Protocol: as §1, §2

[6] = target: T2, Antigen CD66c (CEACAM6; Sino …); assay: ELISA, CEACAM6 coated 100 ng/well, antibody at 0.51 ng/ml
Protocol: as §1, §2

[7] = target: T2, Antigen CD66c (CEACAM6; Sino …); assay: ELISA, CEACAM6 coated 100 ng/well, antibody at 3333.33 ng/ml
Protocol: as §1, §2

[8] = target: T2, Antigen CD66c (CEACAM6; Sino …); assay: ELISA, CEACAM6 coated 100 ng/well, antibody at 13.72 ng/ml
Protocol: as §1, §2

[9] = target: T2, Antigen CD66c (CEACAM6; Sino …); assay: ELISA, CEACAM6 coated 100 ng/well, antibody at 1.52 ng/ml
Protocol: as §1, §2

[10] = target: T2, Antigen CD66c (CEACAM6; Sino …); assay: ELISA, CEACAM6 coated 100 ng/well, antibody at 10000.00 ng/ml
Protocol: as §1, §2

[11] = target: T2, Antigen CD66c (CEACAM6; Sino …); assay: ELISA, CEACAM6 coated 100 ng/well, antibody at 41.15 ng/ml
Protocol: as §1

[12] = target: T2, Antigen CD66c (CEACAM6; Sino …); assay: ELISA, CEACAM6 coated 100 ng/well, antibody at 4.57 ng/ml
Protocol: as §1, §2

Row | Binder | % (% gated × mean), against the chimeric antibody [1] | % gated [1] | Mean (fluorescence) [1] | OD 450 nm [2] | OD 450 nm [3] | OD 450 nm [4] | OD 450 nm [5] | OD 450 nm [6] | OD 450 nm [7] | OD 450 nm [8] | OD 450 nm [9] | OD 450 nm [10] | OD 450 nm [11] | OD 450 nm [12]
1 | recombinant humanized anti-CD66c antibody Protein ID 3004 (Vk7 + VH5) (antibody, human IgG1, V domains shown, also called #41) VH: QVQLVQSGAEVKKPGASVKISCKASGYSFTDYTMNWVRQAHGQNLEWIGLINPFHGGTVSNQRFKVKATLTVDVSTNTAYMELSRLRSDDTAVYYCVRGDPVRHYYALAYWGQGTLVTVSS VL: DIQMTQSPSTLSASVGDRVTITCGASENVYGTLNWYQRKPGKAPKLLIYGATNLADGVPSRFSGSGSGTEYTLTISSLQPDDFATYYCQNVLSAPYTFGGGTKLEIK | 85% | 71% | 541 |  |  |  |  |  |  |  |  |  |  | 
2 | recombinant humanized anti-CD66c antibody Protein ID 3010 (Vk7 + VH7) (antibody, human IgG1, V domains shown, also called #45) VH: QVQLVQSGAEVKKPGASMKISCKASGYSFTDYTMNWVRQAPGQGLEWIGLINPFHGGTVSNQRFKVKATLTVDVSTNTAYMELSRLRSDDTAVYYCVRGDPVRHYYALAYWGQGTLVTVSS VL: DIQMTQSPSTLSASVGDRVTITCGASENVYGTLNWYQRKPGKAPKLLIYGATNLADGVPSRFSGSGSGTEYTLTISSLQPDDFATYYCQNVLSAPYTFGGGTKLEIK | 85.8% | 70% | 554 |  |  |  |  |  |  |  |  |  |  | 

More lines, now with the values ahead:

Row | % (% gated × mean), against the chimeric antibody [1] | % gated [1] | Mean (fluorescence) [1] | OD 450 nm [2] | OD 450 nm [3] | OD 450 nm [4] | OD 450 nm [5] | OD 450 nm [6] | OD 450 nm [7] | OD 450 nm [8] | OD 450 nm [9] | OD 450 nm [10] | OD 450 nm [11] | OD 450 nm [12] | Binder
3 | 86.9% | 70% | 561 | 3.23 OD 450 nm | 3.34 OD 450 nm | 3.04 OD 450 nm | 0.68 OD 450 nm | 0.8 OD 450 nm | 3.26 OD 450 nm | 1.77 OD 450 nm | 0.95 OD 450 nm | 3.13 OD 450 nm | 2.45 OD 450 nm | 1.32 OD 450 nm | recombinant humanized anti-CD66c antibody Protein ID 3019 (Vk7 + VH10) (antibody, human IgG1, V domains shown, also called hu 3019; #51) VH: QVQLVQSGAEVKKPGASVKVSCKASGYSFTDYTMNWVKQAPGQNLEWIGLINPFHGGTVSNQRFKVKATMTVDVSTNTAYMELSRLRSDDTAVYYCVRGDPVRHYYALAYWGQGTLVTVSS VL: DIQMTQSPSTLSASVGDRVTITCGASENVYGTLNWYQRKPGKAPKLLIYGATNLADGVPSRFSGSGSGTEYTLTISSLQPDDFATYYCQNVLSAPYTFGGGTKLEIK
4 | 82.2% | 71% | 523 |  |  |  |  |  |  |  |  |  |  |  | recombinant humanized anti-CD66c antibody Protein ID 3046 (Vk8 + VH7) (antibody, human IgG1, V domains shown, also called #74) VH: QVQLVQSGAEVKKPGASMKISCKASGYSFTDYTMNWVRQAPGQGLEWIGLINPFHGGTVSNQRFKVKATLTVDVSTNTAYMELSRLRSDDTAVYYCVRGDPVRHYYALAYWGQGTLVTVSS VL: DIQMTQSPSTLSASVGDRVTITCRASENVYGTLNWYQRKPGKAPKLLIYGATNLADGMPSRFSGSGSGTEYTLTISSLQPDDFATYYCQNVLSAPYTFGGGTKLEIK
